To fix the notation:
T1: human KLRB1 protein extracellular domain (ECD) (human, UniProt Q12918 67-225)
T1 construct: range 67-225; The ELISA and SPR text says only 'human KLRB1 ECD'; also called human KLRB1 ECD; CD161
T1 sequence (looked up): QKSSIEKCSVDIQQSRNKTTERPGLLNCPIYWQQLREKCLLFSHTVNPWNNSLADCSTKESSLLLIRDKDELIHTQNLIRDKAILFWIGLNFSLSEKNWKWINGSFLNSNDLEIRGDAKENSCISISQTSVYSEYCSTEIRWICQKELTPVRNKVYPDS

B1: 10A3D6C109Chum5.1 (antibody, V domains shown)
VH: QVQLVQSGAEVKKPGASVKVSCKASGYSFTGYTMNWVRQAPGQNLEWMGLINPNTGGTYYNQKFKDRVTLTVDTSISTAYMELSRLRSDDTVVYYCARLGDNYRGYFDCWGQGTLVTVSS
VL: DIQLTQSPSFLSASVGDRVTITCKASQDVGTAVVWYQQKPGKAPKLLIYWASIRHTGVPSRFSGSGSGTEFTLTISSLQPEDFATYYCQQYSTYLYTFGGGTKLEIK
notes: Humanized variant of 10A3D6 made by CDR grafting
B2: 10A3D6C109Chum2.5 (antibody, V domains shown)
VH: QVQLVQSGAEVKKPGASVKVSCKASGYSFTGYTMNWVRQAPGQNLEWIGLINPNTGGTYYNQKFKDRVTLTVDTSISTAYMELSRLRSDDTAVYYCARLGDNYRGYFDCWGQGTTVTVSS
VL: EIVMTQSPATLSVSPGERATLSCKASQDVGTAVVWYQQKPGQAPRLLIDWASIRHTGIPARFSGSGSGTEFTLTISSLQSEDFAVYYCQQYSTYLYTFGGGTKVEIK
notes: as for B1
B3: 10A3D6C109Chum5.4 (antibody, V domains shown)
VH: QVQLVQSGAEVKKPGASVKVSCKASGYSFTGYTMNWVRQAPGQNLEWMGLINPNTGGTYYNQKFKDRVTLTVDTSISTAYMELSRLRSDDTVVYYCARLGDNYRGYFDCWGQGTLVTVSS
VL: DIQLTQSPSFLSASVGDRVTITCKASQDVGTAVVWYQQTPGKAPKLLIDWASIRHTGVPDRFSGSGSGTEFTLTISSLQPEDFADYFCQQYSTYLYTFGGGTKLEIK
notes: as for B1
B4: 10A3D6C109Chum1.5 (antibody, V domains shown)
VH: QVQLVQSGAEVKKPGASVKVSCKASGYSFTGYTMNWVRQAPGQGLEWMGLINPNTGGTYYNQKFKDRVTMTRDTSISTAYMELSRLRSDDTAVYYCARLGDNYRGYFDCWGQGTTVTVSS
VL: EIVMTQSPATLSVSPGERATLSCKASQDVGTAVVWYQQKPGQAPRLLIDWASIRHTGIPARFSGSGSGTEFTLTISSLQSEDFAVYYCQQYSTYLYTFGGGTKVEIK
notes: as for B1
B5: 10A3D6C109Chum3.5 (antibody, V domains shown)
VH: QVQLVQSGAEVKKPGASVKVSCKASGYSFTGYTMNWVRQAHGQNLEWIGLINPNTGGTYYNQKFKDRVTLTVDTSISTAYMELSRLRSDDTAVYYCARLGDNYRGYFDCWGQGTTVTVSS
VL: EIVMTQSPATLSVSPGERATLSCKASQDVGTAVVWYQQKPGQAPRLLIDWASIRHTGIPARFSGSGSGTEFTLTISSLQSEDFAVYYCQQYSTYLYTFGGGTKVEIK
notes: as for B1
B6: 10A3D6C109Chum5.3 (antibody, V domains shown)
VH: QVQLVQSGAEVKKPGASVKVSCKASGYSFTGYTMNWVRQAPGQNLEWMGLINPNTGGTYYNQKFKDRVTLTVDTSISTAYMELSRLRSDDTVVYYCARLGDNYRGYFDCWGQGTLVTVSS
VL: DIQLTQSPSFLSASVGDRVTITCKASQDVGTAVVWYQQTPGKAPKLLIDWASIRHTGVPSRFSGSGSGTEFTLTISSLQPEDFADYFCQQYSTYLYTFGGGTKLEIK
notes: as for B1
B7: 10A3D6C109Chum5.2 (antibody, V domains shown)
VH: QVQLVQSGAEVKKPGASVKVSCKASGYSFTGYTMNWVRQAPGQNLEWMGLINPNTGGTYYNQKFKDRVTLTVDTSISTAYMELSRLRSDDTVVYYCARLGDNYRGYFDCWGQGTLVTVSS
VL: DIQLTQSPSFLSASVGDRVTITCKASQDVGTAVVWYQQKPGKAPKLLIDWASIRHTGVPSRFSGSGSGTEFTLTISSLQPEDFADYFCQQYSTYLYTFGGGTKLEIK
notes: as for B1

In the assay the target is T1, human KLRB1 protein extracellular …. Description: SPR, human KLRB1 ECD; format not stated. The method, then: The chimeric antibody 10A3D6-hIgGlk (a mouse/human chimeric antibody with 10A3D6 variable regions and human IgG1-kappa constant regions), chimeric mutated variants (10A3D6C109S, 10A3D6C109F, and 10A3D6C109V), and humanized variants of 10A3D6 created by CDR grafting (Almagro et al. 2008) were assayed for binding against human KLRB1 extracellular domain (ECD) via surface plasma resonance (SPR).
The Kd is the concentration at which binding is half-saturated. A higher Kd goes with lower affinity. The koff is the first-order rate constant of dissociation. A low value points to a long-lived complex. Usually kon stands for the second-order rate constant of association. A lower kon goes with slower complex formation. B1 had a dissociation constant (Kd) of 10.2 nM, a koff of 0.0196 s⁻¹ and an on-rate (kon) of 1.92e+06 M⁻¹ s⁻¹.

In turn, B2 came in with a Kd of 0.11 nM, a koff of 9.49e-05 s⁻¹ and an association rate constant (kon) of 861000 M⁻¹ s⁻¹.

With B3, the affinity, expressed as Kd, was 0.143 nM; the koff came out at 0.000133 s⁻¹; the kon was found to be 930000 M⁻¹ s⁻¹.

In turn, B4 returned a Kd of 0.0881 nM, an off-rate (koff) of 9e-05 s⁻¹ and an on-rate (kon) of 1.02e+06 M⁻¹ s⁻¹.

As to B5, the equilibrium dissociation constant (Kd) was found to be 0.144 nM, the koff was determined as 0.000114 s⁻¹ and the kon came to 792000 M⁻¹ s⁻¹.

Turning to B6, the Kd was determined as 0.155 nM, the off-rate (koff) worked out at 0.000134 s⁻¹ and the kon was 868000 M⁻¹ s⁻¹.

As to B7, the affinity, expressed as Kd, was 0.173 nM; the koff was found to be 0.000138 s⁻¹; the kon is 800000 M⁻¹ s⁻¹.
